Assay results from IntAct's records for PubMed 35512704.

B1: Speckle-type POZ protein (Homo sapiens), O43791 (parent)
chain: MSRVPSPPPPAEMSSGPVAESWCYTQIKVVKFSYMWTINNFSFCREEMGEVIKSSTFSSGANDKLKWCLRVNPKGLDEESKDYLSLYLLLVSCPKSEVRAKFKFSILNAKGEETKAMESQRAYRFVQGKDWGFKKFIRRDFLLDEANGLLPDDKLTLFCEVSVVQDSVNISGQNTMNMVKVPECRLADELGGLWENSRFTDCCLCVAGQEFQAHKAILAARSPVFSAMFEHEMEESKKNRVEINDVEPEVFKEMMCFIYTGKAPNLDKMADDLLAAADKYALERLKVMCEDALCSNLSVENAAEILILADLHSADQLKTQAVDFINYHASDVLETSGWKSMVVSHPHLVAEAYRSLASAQCPFLGPPRKRLKQS
partner: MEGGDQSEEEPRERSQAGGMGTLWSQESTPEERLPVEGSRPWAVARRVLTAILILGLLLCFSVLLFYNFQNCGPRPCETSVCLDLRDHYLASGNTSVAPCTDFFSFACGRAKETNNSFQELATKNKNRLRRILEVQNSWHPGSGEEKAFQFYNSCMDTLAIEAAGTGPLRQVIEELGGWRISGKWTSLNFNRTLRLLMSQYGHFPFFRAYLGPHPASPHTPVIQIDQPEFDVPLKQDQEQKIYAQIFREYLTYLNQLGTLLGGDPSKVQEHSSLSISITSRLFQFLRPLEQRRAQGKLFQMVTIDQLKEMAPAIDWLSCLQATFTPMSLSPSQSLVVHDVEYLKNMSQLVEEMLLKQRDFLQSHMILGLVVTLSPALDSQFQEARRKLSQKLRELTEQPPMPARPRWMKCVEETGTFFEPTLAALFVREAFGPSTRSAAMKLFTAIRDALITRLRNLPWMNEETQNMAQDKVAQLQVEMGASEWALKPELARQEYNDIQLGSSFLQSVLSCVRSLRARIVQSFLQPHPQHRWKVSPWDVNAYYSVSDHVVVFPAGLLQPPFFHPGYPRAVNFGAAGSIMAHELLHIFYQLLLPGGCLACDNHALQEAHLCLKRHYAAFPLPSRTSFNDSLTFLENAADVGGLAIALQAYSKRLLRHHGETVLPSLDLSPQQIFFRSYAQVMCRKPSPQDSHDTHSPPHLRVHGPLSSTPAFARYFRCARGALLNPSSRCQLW
B2: Speckle-type POZ protein (Homo sapiens), O43791 (parent)
chain: B1 chain
partner: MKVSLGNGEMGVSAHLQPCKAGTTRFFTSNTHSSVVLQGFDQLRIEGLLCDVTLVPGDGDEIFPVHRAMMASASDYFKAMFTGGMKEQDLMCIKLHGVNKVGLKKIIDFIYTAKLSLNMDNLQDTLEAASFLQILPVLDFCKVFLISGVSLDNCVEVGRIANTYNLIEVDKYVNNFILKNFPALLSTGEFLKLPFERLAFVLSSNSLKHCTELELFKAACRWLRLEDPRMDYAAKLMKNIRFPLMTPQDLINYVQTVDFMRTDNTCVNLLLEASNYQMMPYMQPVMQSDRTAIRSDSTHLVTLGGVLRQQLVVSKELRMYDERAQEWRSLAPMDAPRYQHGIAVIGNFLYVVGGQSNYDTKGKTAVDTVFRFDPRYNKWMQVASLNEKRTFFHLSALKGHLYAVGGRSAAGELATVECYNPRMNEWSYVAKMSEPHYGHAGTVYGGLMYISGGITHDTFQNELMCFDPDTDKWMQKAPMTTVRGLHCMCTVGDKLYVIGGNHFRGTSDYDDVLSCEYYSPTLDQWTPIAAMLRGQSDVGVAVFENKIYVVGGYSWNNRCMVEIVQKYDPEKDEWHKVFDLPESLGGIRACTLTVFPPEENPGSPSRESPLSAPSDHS
B3: Speckle-type POZ protein (Homo sapiens), O43791 (parent)
chain: B1 chain
partner: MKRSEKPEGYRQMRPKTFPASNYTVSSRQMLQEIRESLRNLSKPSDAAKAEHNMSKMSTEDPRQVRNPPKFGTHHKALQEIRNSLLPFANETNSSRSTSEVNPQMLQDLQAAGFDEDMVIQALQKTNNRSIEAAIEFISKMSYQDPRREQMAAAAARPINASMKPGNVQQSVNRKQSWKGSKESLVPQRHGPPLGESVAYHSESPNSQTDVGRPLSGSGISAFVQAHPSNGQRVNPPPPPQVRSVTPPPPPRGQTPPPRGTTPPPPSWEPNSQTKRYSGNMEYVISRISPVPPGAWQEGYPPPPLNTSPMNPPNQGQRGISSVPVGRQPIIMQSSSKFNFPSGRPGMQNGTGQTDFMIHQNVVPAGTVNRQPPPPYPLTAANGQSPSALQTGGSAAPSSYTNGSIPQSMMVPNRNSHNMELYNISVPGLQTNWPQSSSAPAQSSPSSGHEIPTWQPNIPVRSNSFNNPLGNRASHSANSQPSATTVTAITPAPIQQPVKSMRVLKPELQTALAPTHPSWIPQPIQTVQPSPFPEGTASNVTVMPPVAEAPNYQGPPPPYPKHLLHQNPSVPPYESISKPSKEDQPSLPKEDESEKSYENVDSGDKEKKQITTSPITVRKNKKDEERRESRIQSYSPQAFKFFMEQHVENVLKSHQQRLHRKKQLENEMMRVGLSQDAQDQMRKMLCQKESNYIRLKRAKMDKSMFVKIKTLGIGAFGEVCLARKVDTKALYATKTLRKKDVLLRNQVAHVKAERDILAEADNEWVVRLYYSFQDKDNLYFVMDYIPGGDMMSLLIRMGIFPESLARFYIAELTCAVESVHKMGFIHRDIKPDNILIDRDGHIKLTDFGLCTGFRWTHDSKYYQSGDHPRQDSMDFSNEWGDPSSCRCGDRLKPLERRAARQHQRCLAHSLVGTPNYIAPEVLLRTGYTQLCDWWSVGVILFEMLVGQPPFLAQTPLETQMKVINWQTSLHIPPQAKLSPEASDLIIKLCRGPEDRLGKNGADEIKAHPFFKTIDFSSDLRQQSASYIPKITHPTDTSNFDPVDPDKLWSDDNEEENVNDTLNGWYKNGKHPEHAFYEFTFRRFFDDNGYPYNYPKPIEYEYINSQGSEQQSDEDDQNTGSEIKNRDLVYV
B4: Speckle-type POZ protein (Homo sapiens), O43791 (parent)
chain: B1 chain
partner: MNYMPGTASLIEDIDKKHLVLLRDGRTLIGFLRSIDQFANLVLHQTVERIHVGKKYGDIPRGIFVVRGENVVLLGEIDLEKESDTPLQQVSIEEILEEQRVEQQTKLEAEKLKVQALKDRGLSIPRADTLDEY
B5: Speckle-type POZ protein (Homo sapiens), O43791 (parent)
chain: B1 chain
partner: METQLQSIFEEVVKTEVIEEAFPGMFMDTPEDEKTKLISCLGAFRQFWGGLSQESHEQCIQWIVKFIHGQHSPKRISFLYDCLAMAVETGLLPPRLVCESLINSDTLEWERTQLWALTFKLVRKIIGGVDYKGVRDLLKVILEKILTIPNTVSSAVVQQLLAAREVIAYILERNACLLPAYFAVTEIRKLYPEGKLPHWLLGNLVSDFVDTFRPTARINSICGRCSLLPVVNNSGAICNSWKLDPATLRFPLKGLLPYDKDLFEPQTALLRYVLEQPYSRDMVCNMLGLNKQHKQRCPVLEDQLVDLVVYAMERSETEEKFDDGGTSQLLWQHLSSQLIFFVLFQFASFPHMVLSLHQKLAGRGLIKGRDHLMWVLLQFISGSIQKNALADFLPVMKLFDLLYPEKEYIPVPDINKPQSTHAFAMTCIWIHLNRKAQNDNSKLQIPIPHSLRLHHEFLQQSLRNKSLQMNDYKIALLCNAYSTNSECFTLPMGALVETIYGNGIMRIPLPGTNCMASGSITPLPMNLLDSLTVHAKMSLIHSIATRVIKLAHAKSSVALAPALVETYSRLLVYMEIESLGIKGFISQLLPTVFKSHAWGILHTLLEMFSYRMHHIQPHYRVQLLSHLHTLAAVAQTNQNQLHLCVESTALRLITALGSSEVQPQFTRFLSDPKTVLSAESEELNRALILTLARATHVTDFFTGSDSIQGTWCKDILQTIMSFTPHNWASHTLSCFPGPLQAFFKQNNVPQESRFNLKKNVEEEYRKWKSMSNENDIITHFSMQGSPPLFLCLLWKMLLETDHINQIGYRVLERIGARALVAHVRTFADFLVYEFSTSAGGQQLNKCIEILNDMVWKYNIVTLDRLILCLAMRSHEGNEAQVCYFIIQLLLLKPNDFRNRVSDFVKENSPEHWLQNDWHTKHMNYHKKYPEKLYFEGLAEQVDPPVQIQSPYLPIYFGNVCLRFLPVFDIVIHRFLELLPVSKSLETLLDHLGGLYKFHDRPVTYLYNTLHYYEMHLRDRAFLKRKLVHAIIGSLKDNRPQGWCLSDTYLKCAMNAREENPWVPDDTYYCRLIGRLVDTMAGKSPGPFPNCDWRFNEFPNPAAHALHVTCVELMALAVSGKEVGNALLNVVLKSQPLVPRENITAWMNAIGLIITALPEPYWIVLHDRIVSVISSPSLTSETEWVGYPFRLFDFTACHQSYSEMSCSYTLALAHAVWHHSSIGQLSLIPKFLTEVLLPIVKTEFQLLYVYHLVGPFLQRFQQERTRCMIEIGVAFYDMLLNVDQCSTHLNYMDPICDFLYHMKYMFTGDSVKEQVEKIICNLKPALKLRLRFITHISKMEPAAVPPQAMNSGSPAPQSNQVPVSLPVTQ
B6: Speckle-type POZ protein (Homo sapiens), O43791 (parent)
chain: B1 chain
partner: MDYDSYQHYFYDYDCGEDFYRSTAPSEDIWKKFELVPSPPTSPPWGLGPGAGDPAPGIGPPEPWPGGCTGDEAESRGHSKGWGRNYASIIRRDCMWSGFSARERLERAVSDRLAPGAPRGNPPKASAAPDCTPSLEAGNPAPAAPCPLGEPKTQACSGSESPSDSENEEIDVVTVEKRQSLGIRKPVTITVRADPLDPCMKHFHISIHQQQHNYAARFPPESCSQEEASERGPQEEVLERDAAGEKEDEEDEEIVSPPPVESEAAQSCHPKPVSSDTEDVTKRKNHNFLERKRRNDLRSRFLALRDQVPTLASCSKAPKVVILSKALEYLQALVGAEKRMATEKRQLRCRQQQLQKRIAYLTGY
B7: Speckle-type POZ protein (Homo sapiens), O43791 (parent)
chain: B1 chain
partner: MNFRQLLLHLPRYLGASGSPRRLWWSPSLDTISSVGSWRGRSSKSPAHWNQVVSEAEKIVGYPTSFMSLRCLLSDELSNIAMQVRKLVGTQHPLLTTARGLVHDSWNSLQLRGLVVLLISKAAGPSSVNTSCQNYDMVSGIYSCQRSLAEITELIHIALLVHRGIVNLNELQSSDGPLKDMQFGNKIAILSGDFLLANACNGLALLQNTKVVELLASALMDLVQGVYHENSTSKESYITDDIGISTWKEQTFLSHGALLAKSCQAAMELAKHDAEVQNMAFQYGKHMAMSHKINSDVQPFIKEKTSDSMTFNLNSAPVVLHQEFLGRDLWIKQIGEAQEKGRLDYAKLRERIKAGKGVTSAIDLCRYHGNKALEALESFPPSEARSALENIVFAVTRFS

Variants of: B1
Details: with kell_human KEL

Variant	effect of a mutation on the interaction
F133V	with no effect

Variants of: B2
Details: with klhl9_human KLHL9, Q9P2J3

Variant	effect of a mutation on the interaction
F133L	with no effect

Variants of: B2
Details: with klhl9_human KLHL9, Q9P2J3
Remark: another data set of the same source

Variant	effect of a mutation on the interaction
Y87C	with no effect

Variants of: B3
Details: with lats1_human LATS1, O95835

Variant	effect of a mutation on the interaction
F133L	with no effect

Variants of: B3
Details: with lats1_human LATS1, O95835
Remark: another data set of the same source

Variant	effect of a mutation on the interaction
Y87C	with no effect

Variants of: B3
Details: with lats1_human LATS1, O95835
Remark: another data set of the same source

Variant	effect of a mutation on the interaction
F133V	with no effect

Variants of: B4
Details: with lsm1_human LSM1, O15116

Variant	effect of a mutation on the interaction
F133L	with no effect

Variants of: B4
Details: with lsm1_human LSM1, O15116
Remark: another data set of the same source

Variant	effect of a mutation on the interaction
Y87C	with no effect

Variants of: B4
Details: with lsm1_human LSM1, O15116
Remark: another data set of the same source

Variant	effect of a mutation on the interaction
F133V	with no effect

Variants of: B5
Details: with med23_human MED23, Q9ULK4

Variant	effect of a mutation on the interaction
F133L	with no effect

Variants of: B5
Details: with med23_human MED23, Q9ULK4
Remark: another data set of the same source

Variant	effect of a mutation on the interaction
F133V	with no effect

Variants of: B6
Details: with mycl_human MYCL

Variant	effect of a mutation on the interaction
F133L	with no effect

Variants of: B6
Details: with mycl_human MYCL
Remark: another data set of the same source

Variant	effect of a mutation on the interaction
Y87C	with no effect

Variants of: B7
Details: with dlp1_human PDSS2, Q86YH6

Variant	effect of a mutation on the interaction
F133L	with no effect
